Test results reported in paper PMC6957492, “Assembly and substrate recognition of curli biogenesis system” (Nature Communications, 2020).
Entries after “also recorded” stand apart in the source; their conditions may differ.

Columns and labels:
CsgE = experiment: Pulldown assay of different parts of CsgA with CsgE; type: binding, E. coli; details: C-terminal MBP tag on CsgA parts
CsgG nonamer = target: T1, CsgG nonamer (Escherichia coli, UniProt P0AEA2); type: binding, E. coli K12; details: given in reply to Reviewer #1
T1 construct: made in house; host or cells: E. coli BL21 (DE3)
T1 sequence (P0AEA2 whole entry, looked up): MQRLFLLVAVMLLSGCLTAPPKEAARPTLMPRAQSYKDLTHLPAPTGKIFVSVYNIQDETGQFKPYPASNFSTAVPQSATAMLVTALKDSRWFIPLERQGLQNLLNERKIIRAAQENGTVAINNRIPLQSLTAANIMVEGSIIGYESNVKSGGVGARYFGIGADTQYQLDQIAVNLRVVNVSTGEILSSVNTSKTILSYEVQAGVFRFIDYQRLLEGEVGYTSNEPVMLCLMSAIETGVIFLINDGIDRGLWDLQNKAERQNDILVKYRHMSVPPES
From the text: (1 picture or pasted object on this page, not shown here)
are provided as a Source Data file.

CsgG = experiment: Pulldown assay of CsgE with CsgG; type: binding, E. coli; details: western blot
Description: The CsgE and CsgG were transformed in E. coli BL21 (DE3) strain. […] After incubation for 30 min, CsgE alone and CsgE-CsgG mixture were loaded to Strep-Tactin columns (IBA), respectively. The beads were washed for four times with a buffer having 25 mM Tris pH 8.0, 150 mM NaCl and 0.02% DDM and then eluted by an elution buffer (25 mM Tris pH 8.0, 150 mM NaCl, 0.02% DDM and 25 mM desthiobiotin). […] The samples were analyzed using 15% SDS–PAGE and detected using western blotting.

CsgA = details: cited from earlier work

Molecule | interaction of CsgA part with CsgE in pulldown (CsgE) | CsgE-CsgG ITC interaction strength (in words) (CsgG nonamer) | interaction of CsgE with CsgG in pulldown (CsgG) | inhibition of CsgA self-assembly into amyloid fibers (CsgA)
CsgAR1-5: five C-terminal repeating units of CsgA | CsgE bound to CsgAR1-5 | – | – | –
CsgE: soluble accessory factor that binds CsgG (protein, left off: His tag (from the Ni-NTA purification of the input), end not stated, state not stated) VEVEVPGLLTDHTVSSIGHDFYRAFSDKWESDYTGNLTINERPSARWGSWITITVNQDVIFQTFLFPLKRDFEKTVVFALIQTEEALNRRQINQALLSTGDLAHDEF | – | mM level | CsgG could pull-down CsgE; also recorded: interacts with the CsgG channel | inhibit self-assembly of CsgA into amyloid fibers
